Assay [1] deals with amyloid beta peptide Aβ 1–42 (fibrils).
The target of assay [2] is amyloid beta peptide Aβ 3–28 (fibrils).

As for “human cystatin C (wild type) (from UniProt P01034 27-146) (natural protein)”, the decrease of SANS scattering intensity at q < 0.01 between the beginning (300 s) and the end of the kinetic experiment (fibril disaggregation; 37 °C, deuterated HCC 1 mg/mL) in assay [1] came out at 4%.

B1: human cystatin C (wild type) (natural protein)
chain: SSPGKPPRLVGGPMDASVEEEGVRRALDFAVGEYNKASNDMYHSRALQVVRARKQIVAGVNYFLDVELGRTTCTKTQPNLDNCPFHDQPHLKRKAFCSFQIYAVPWQGTMTLSKSTCQDA
modifications: 2H-labelled (deuterated) in D-HCC; protonated in H-HCC
For B1, in assay [2], the decrease of SANS scattering intensity at q < 0.01 between the beginning (300 s) and the end of the kinetic experiment (fibril disaggregation; 37 °C, deuterated HCC 1 mg/mL, 1–10 h) was greater than 70%.

The record behind these values is publication PMC10682421.
